Test results published in US20260015426A1 (23ANDME, published 2026).

T1: cyno-M-IL1RAP construct, positions S21-T367 (cynomolgus monkey, UniProt P59822 21-367 (rhesus entry))
T1 construct: Biotinylated when captured on the Biacore chip; also called cy-M-IL1RAP
T1 sequence: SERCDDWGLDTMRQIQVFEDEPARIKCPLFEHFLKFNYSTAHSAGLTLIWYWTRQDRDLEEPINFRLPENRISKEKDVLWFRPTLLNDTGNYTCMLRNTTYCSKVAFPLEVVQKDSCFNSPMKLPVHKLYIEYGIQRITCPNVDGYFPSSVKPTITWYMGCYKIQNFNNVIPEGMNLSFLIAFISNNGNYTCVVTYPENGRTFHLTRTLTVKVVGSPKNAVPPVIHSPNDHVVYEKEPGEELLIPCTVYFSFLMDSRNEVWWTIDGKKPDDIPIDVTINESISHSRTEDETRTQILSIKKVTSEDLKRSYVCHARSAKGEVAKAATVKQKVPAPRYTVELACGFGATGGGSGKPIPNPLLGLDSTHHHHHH

T2: hu-M-IL1RAP construct, positions S21-T367 (extracellular domain of the membrane form of human IL1RAP) (human, UniProt Q9NPH3 21-367)
T2 construct: Biotinylated when captured on the Biacore chip
T2 sequence: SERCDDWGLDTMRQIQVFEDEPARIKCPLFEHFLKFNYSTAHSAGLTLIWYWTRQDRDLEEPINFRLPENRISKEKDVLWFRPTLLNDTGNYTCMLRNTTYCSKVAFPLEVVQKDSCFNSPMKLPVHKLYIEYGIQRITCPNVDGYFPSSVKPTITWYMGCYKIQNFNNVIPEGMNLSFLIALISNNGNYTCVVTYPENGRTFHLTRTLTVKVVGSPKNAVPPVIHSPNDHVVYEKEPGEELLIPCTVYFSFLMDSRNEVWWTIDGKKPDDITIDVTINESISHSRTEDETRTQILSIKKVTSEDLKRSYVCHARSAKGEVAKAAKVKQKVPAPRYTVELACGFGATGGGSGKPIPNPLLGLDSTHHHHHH

T3: human IL1RAP (hu-IL1RAP) on human cells (human, UniProt Q9NPH3 21-570)
T3 sequence: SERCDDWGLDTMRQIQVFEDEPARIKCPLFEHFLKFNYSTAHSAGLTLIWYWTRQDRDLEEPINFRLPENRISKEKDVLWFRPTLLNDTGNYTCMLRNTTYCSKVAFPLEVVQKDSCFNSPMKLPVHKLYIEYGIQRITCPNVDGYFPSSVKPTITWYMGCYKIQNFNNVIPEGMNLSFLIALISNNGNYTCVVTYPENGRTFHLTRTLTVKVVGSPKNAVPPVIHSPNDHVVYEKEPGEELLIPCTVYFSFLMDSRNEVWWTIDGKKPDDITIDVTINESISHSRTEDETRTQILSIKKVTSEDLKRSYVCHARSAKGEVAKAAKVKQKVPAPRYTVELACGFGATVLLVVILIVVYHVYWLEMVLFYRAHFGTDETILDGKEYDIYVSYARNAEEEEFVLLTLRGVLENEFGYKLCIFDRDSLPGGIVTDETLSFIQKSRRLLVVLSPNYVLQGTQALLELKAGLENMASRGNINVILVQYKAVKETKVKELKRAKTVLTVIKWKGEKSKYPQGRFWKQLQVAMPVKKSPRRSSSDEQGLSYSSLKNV


Legend:
[1] = target: T1, cyno-M-IL1RAP construct, positions …; test: SPR, 37 C
Experimental: (§1) Surface plasmon resonance (SPR) analysis was used to determine binding affinity for hu-M-IL1RAP of the purified Fabs containing the selected single, double, and triple mutations in either the VL or VH regions using a BIACORE™ 8K instrument. […] For kinetics measurements, 5 nM biotinylated hu-M-IL1RAP was captured at 10 μL/min to achieve ˜50 response units in the second flow cell (FC2). FC1 was kept as a reference. […] The sensorgrams were recorded and subjected to reference and buffer subtraction before data analysis with the BIACORE® 8K Evaluation Software (version 1.1.1.7442). Association rates (kₒₙ) and dissociation rates (koff) were calculated using a simple one-to-one Langmuir binding model. The equilibrium dissociation constant (KD) was calculated as the ratio of koff/kₒₙ.

[2] = target: T2, hu-M-IL1RAP construct, positions …; test: SPR, 37 C
Experimental: as §1

[3] = target: T1, cyno-M-IL1RAP construct, positions …; test: SPR, IgG analyte (apparent), 37 C, pH 7.4
Experimental: as §1

[4] = target: T2, hu-M-IL1RAP construct, positions …; test: SPR, IgG analyte (apparent), 37 C, pH 7.4
Experimental: as §1

[5] = target: T3, human IL1RAP (hu-IL1RAP) on human cells; test: cell-based or functional assay
[6] = target: T1, cyno-M-IL1RAP construct, positions …; test: SPR, IgG analyte (apparent), pH 7.4, 37 C
[7] = target: T2, hu-M-IL1RAP construct, positions …; test: SPR, IgG analyte (apparent), pH 7.4, 37 C
[8] = target: T1, cyno-M-IL1RAP construct, positions …; test: SPR, IgG analyte (apparent), 37 C, pH 6
Experimental: as §1

[9] = target: T2, hu-M-IL1RAP construct, positions …; test: SPR, IgG analyte (apparent), 37 C, pH 6
Experimental: as §1

[10] = target: T2, hu-M-IL1RAP construct, positions …; test: BLI (OCTET), mAb captured, 25 C
Experimental: All samples were placed in black 96-well plates and the experiment was performed at 25° C. […] The biosensors were equilibrated in experimental buffer at 25° C. for ten minutes prior to starting the experiment.
The resulting BLI signal from analyte association and dissociation from the immobilized antibody was analyzed using the Octet Data Analysis software (Pall ForteBio). First, a reference subtraction was performed on all recorded traces using the reference well (biosensor that underwent the same steps as experimental wells but no analyte for the Association step), then all the traces were aligned to the beginning of the Association step.

[11] = target: T3, human IL1RAP (hu-IL1RAP) on human cells; test: cell-based or functional assay; remark: listed apart in the source

Binder	KD (6)/KD (7.4) [1]	KD (7.4) ratio to YIS [1]	koff (6) ratio to YIS [1]	KD (6)/KD (7.4) [2]	KD (7.4) ratio to YIS [2]	koff (6) ratio to YIS [2]	Kd [3]	koff [3]	kon [3]	Kd [4]	koff [4]	kon [4]	HEK-Blue, IL-1β, % inhibition at 100 nM (IgG) [5]	HEK-Blue, IL-1β, IC50 (IgG) [5]	HEK-Blue, IL-33, % inhibition at 100 nM (IgG) [5]	HEK-Blue, IL-33, IC50 (IgG) [5]	HEK-Blue, IL-36α, % inhibition at 100 nM (IgG) [5]	HEK-Blue, IL-36α, IC50 (IgG) [5]	Kd [8]	koff [8]	other results
h11C5 variant K13/H3 IgG (YIS) (antibody, Human IgG1 N297G; also called 11C5-YIS) heavy: not shown light: DIQMTQSPSSLSASVGDRVTITCRASENIYSNLAWYQQKPGKSPKLLVYGYKNLADGVPSRFSGSGSGTDYTLTISSLQPEDFATYYCQHFITTPRTFGGGTKVEIKRTVAAPSVFIFPPSDEQLKSGTASVVCLLNNFYPREAKVQWKVDNALQSGNSQESVTEQDSKDSTYSLSSTLTLSKADYEKHKVYACEVTHQGLSSPVTKSFNRGEC	2.5 ratio	1 ratio	1 ratio	3.3 ratio	1 ratio	1 ratio	0.014 nM	3e-05 s⁻¹	2.14e+06 M⁻¹ s⁻¹	0.0213 nM	3.94e-05 s⁻¹	1.85e+06 M⁻¹ s⁻¹	100%	0.251 nM	98%	0.425 nM	100%	0.232 nM	0.0345 nM	6.94e-05 s⁻¹	Kd [6]: 0.0116 nM; koff [6]: 3.34e-05 s⁻¹; kon [6]: 2.87e+06 M⁻¹ s⁻¹; Kd [7]: 0.013 nM; koff [7]: 3.33e-05 s⁻¹; kon [7]: 2.55e+06 M⁻¹ s⁻¹; kon [8]: 2.01e+06 M⁻¹ s⁻¹; Kd [9]: 0.0705 nM; koff [9]: 0.00015 s⁻¹; kon [9]: 2.12e+06 M⁻¹ s⁻¹
h11C5 variant K13/H2 IgG (YID) (antibody, V domains shown, Human IgG1 N297G; also called 11C5-YID) VH: EVQLVESGGGLVQPGGSLRLSCAASGFTFSNYAMSWVRQAPGKGLEWVATVTEGGDYNYYLDDVKGRFTISRDNAKNSLYLQMNSLRAEDTAVYYCARDDWPYFFDYWGQGTLVTVSS VL: DIQMTQSPSSLSASVGDRVTITCRASENIYSNLAWYQQKPGKSPKLLVYGYKNLADGVPSRFSGSGSGTDYTLTISSLQPEDFATYYCQHFITTPRTFGGGTKVEIKR	4.1 ratio	1.7 ratio	3 ratio	10 ratio	0.66 ratio	2.8 ratio	0.0244 nM	4.62e-05 s⁻¹	1.89e+06 M⁻¹ s⁻¹	0.014 nM	2.69e-05 s⁻¹	1.93e+06 M⁻¹ s⁻¹	100%	0.361 nM	99%	1.52 nM	100%	0.477 nM	0.0993 nM	0.000215 s⁻¹	kon [8]: 2.16e+06 M⁻¹ s⁻¹; Kd [9]: 0.141 nM; koff [9]: 0.000414 s⁻¹; kon [9]: 2.94e+06 M⁻¹ s⁻¹
h11C5 variant K17/H3 IgG (YKS) (antibody, V domains shown, Human IgG1 N297G; also called 11C5-YKS) VH: EVQLVESGGGLVQPGGSLRLSCAASGFTFSNYAMSWVRQAPGKGLEWVATSTEGGDYNYYLDDVKGRFTISRDNAKNSLYLQMNSLRAEDTAVYYCARDRWPYFFDYWGQGTLVTVSS VL: DIQMTQSPSSLSASVGDRVTITCRASENIYSNLAWYQQKPGKSPKLLVYGYKNLADGVPSRFSGSGSGTDYTLTISSLQPEDFATYYCQHFKTTPRTFGGGTKVEIKR	4.6 ratio	1.6 ratio	1.7 ratio	4.3 ratio	1.1 ratio	1.2 ratio	0.0221 nM	4.51e-05 s⁻¹	2.04e+06 M⁻¹ s⁻¹	0.0226 nM	3.87e-05 s⁻¹	1.71e+06 M⁻¹ s⁻¹	100%	0.429 nM	87%	2.5 nM	96%	0.418 nM	0.101 nM	0.000121 s⁻¹	kon [8]: 1.2e+06 M⁻¹ s⁻¹; Kd [9]: 0.0962 nM; koff [9]: 0.000182 s⁻¹; kon [9]: 1.9e+06 M⁻¹ s⁻¹
c11C5_C59Y (C59Y variant of c11C5) (antibody, IgG1, V domains shown, Murine VL and VH, human CL and IgG1 CH1-CH3 domains with effectorless N297G) VH: EVQLVESGGGLVKPGGSLKLSCAASGFTFSNYAMSWVRQTPEKRLEWVATVTEGGDYNYYLDDVKGRFTISRDNANDNLYLQMSHLKSEDSARYYCARDRWPYFFDYWGQGTTLTVSS VL: DIQMTQSPASLSVSVGETVTITCRASENIYSNLAWYQQKQGRSPQLLVYGAKNLADGVPSRFSGSGSGTQYSLNINSLQSEDFGTYYCQHFWTTPRTFGGGTKLEIK																					Kd [10]: 0.446 nM; NK cells, IL-33+IL-12 stimulated IFN-γ, IC50 [11]: 2.9 nM; PHLF, IL-1α stimulated IL-8, IC50 [11]: 3.96 nM; PHLF, IL-36β stimulated IL-8, IC50 [11]: 0.284 nM; monocytes, IL-1β stimulated IL-6, IC50 [11]: 0.733 nM
